Data taken from the supplement of paper PMC10724198.
± gives the standard deviation of the averaged measurements.

What follows are sequences tested on Saccharomyces cerevisiae (assay: protein stability index of tFT-peptide fusion (C-terminal peptide) (PSI (0-1 scale)); higher = more stable (slower turnover)). Details: genetic background: wild type; temperature: 30 C.
Experimental: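 Multiplexed protein stability (MPS) profiling in S. cerevisiae. Random 12-aa peptides (tFT-X12 library) are fused to the C-terminus of a sfGFP-mCherry tandem fluorescent timer, after mCherry and a GGGS linker. Cells are FACS-sorted into 8 mCherry/sfGFP bins and deep-sequenced. The protein stability index (PSI) is the read-weighted bin average, scaled from 0 (unstable) to 1 (stable). Only peptides with >10 reads are reported; cells were grown at 30 °C in SC-His with glucose.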
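Note: PSI is a weighted mean of sequencing reads over stability bins, variants kept only with over 10 reads, mCherry proximal and sfGFP distal, peptide attached via GGGS linker.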

Sequence	protein stability index
IKVIACSEPIPG	0.592 ± 0.021
ILCLAPLSCYPV	0.832 ± 0.055
ILCPGLYQFLVF	0.529 ± 0.038
ILDSPMWQPVSM	0.727 ± 0.056
ILFSSDLNSFSW	0.744 ± 0.03
ILQWEESRKGGI	0.715 ± 0.054
ILRGRDLPHGLG	0.688 ± 0.03
ILRLSLPYEGYI	0.645 ± 0.032
IMGIIKFKSYRI	0.703 ± 0.12
IMKQHNYIGFVF	0.608 ± 0.062
IMNNSKIYRSVG	0.6593 ± 0.0021
IMVLKAAVSKQE	0.69 ± 0.09
INGICDPQANSR	0.71 ± 0.027
INKATYTQIYKN	0.667 ± 0.021
INQEKKLKNNKK	0.70627 ± 0.0004
INWIHERNDKSI	0.734 ± 0.027
IPCKVCQSLIPP	0.611 ± 0.12
IPGSPIATARPG	0.665 ± 0.025
IPPFLVSLPFLP	0.702 ± 0.018
IPSCAGLPLSLS	0.7134 ± 0.0019
IPSCSTPAPHLP	0.677 ± 0.022
IQAVSRDYVELR	0.652 ± 0.031
IQKNKQEVKTNI	0.685 ± 0.1
IRDKTSIRKLEK	0.677 ± 0.058
IRFCILRRLGRH	0.588 ± 0.028

Sequence	protein stability index
IRKGKKIRKKEN	0.641 ± 0.037
IRLPHPPLPPSP	0.6673 ± 0.0025
IRPRRFSPGSTR	0.7 ± 0.043
IRPWPLDPPPGR	0.78 ± 0.08
IRRAGPMVAKGK	0.649 ± 0.086
ISAPLPTLLSVL	0.559 ± 0.041
ISCVSFCCLFDL	0.601 ± 0.0022
ISFGSKLPHHLP	0.657 ± 0.11
ISGDGWNFVGIV	0.715 ± 0.097
ISGRRPWGFGGE	0.642 ± 0.041
ISPQEPLVNTTN	0.665 ± 0.018
ISPSASTSRPFQ	0.697 ± 0.11
ISRLLMAMESRN	0.653 ± 0.024
ISSNMIVMAICG	0.6 ± 0.03
ISSTGYQARHRG	0.688 ± 0.03
ISVDNTKFLFRS	0.687 ± 0.023
ISYIGCCKIVLT	0.553 ± 0.0086
ITRLSPPSSVRL	0.7 ± 0.039
ITTLGSVSRDSR	0.722 ± 0.062
IVGAGVFEERWG	0.77 ± 0.023
IVGLGLENGKEI	0.704 ± 0.042
IVLAGVCGGVVG	0.733 ± 0.29
IVLLSLSCRSPG	0.594 ± 0.014
IVQETKYFVRRS	0.685 ± 0.082
IVRTMLKLFVDV	0.5827 ± 0.0037

Sequence	protein stability index
IVSGVSVHLGVG	0.6115 ± 0.0029
IVVRPAGGGTQS	0.663 ± 0.019
IWGKREDKNVYR	0.71 ± 0.025
IWPGASLALLTS	0.606 ± 0.011
IWRPGVAQSGLA	0.7205 ± 0.0055
IYAQFCSLYDHP	0.702 ± 0.013
IYERTEENKRVN	0.591 ± 0.0088
IYSFFHHRFVTV	0.546 ± 0.0081
KAASSLSRPAHL	0.734 ± 0.074
KAIVKKCTDSED	0.679 ± 0.011
KALNLAAAILYG	0.638 ± 0.015
KALQRKCRKRHK	0.673 ± 0.039
KCKGTCESRRGI	0.833 ± 0.034
KCPRPDATLYQS	0.721 ± 0.042
KDKKKENKNNGE	0.6787 ± 0.0036
KDKSQKKERQKT	0.664 ± 0.029
KDQRAKRRRREE	0.679 ± 0.08
KDRRNKNKRQEY	0.633 ± 0.012
KECGICGAVVGL	0.63 ± 0.092
KEENKKKKKKRI	0.755 ± 0.081
KEGRKKKRQINT	0.803 ± 0.076
KEHKSQRSRVWR	0.719 ± 0.011
KEKKAKKSRKKR	0.665 ± 0.084
KEKKNNRQRKER	0.642 ± 0.016
KELPAGRQSEPD	0.636 ± 0.034

Sequence	protein stability index
KERKHKRTRQQT	0.666 ± 0.021
KFNFVRMSSLRL	0.692 ± 0.16
KFRLAGSVARSG	0.684 ± 0.013
KFSVVMFLDGSW	0.697 ± 0.084
KGENKRRVRKKN	0.574 ± 0.014
KGIDTYVLQRNE	0.715 ± 0.0095
KGKRKETKKTKG	0.667 ± 0.017
KGLKQLMQIRME	0.605 ± 0.064
KGQGAYEGVGKE	0.663 ± 0.019
KGRKVVLETQLQ	0.7 ± 0.018
KGRLVGWDRNRI	0.75 ± 0.07
KGRTEKRGEKRT	0.717 ± 0.017
KHEKGEKNKIEK	0.664 ± 0.055
KHIIPSAYTPEG	0.661 ± 0.023
KHKRKGSERKQG	0.608 ± 0.0066
KHQKNRLRDLGS	0.708 ± 0.03
KHVRIEVITERN	0.635 ± 0.056
KIGNQLQELRRI	0.696 ± 0.017
KIHINTMFQIKK	0.536 ± 0.051
KIIGVRLKFDRS	0.761 ± 0.14
KIKEIIKIKKKR	0.678 ± 0.009
KIKKKKYTKYTK	0.553 ± 0.052
KIKNKKNKCKKK	0.751 ± 0.14
